Assay results from US20220125845A1 (GUANGDONG TCRCURE BIOPHARMA TECHNOLOGY, published 2022).

Columns and labels:
[1] = target: ALPP on ALPP-positive SiHa cervical cancer cells (UniProt P05187); test: cell-based or functional assay
[2] = target: T1, ALPP on ALPP-positive SiHa cervical cancer cells (UniProt P05187 23-506, limits assumed); test: flow cytometry on SiHa cells, AF488 goat anti-human secondary
T1 construct: whole, on cells; SiHa cells (ATCC) are called ALPP-positive cervical cancer cells, and ALPP is the target meant; SiHa is a human line; also called PLAP; SiHa cells
Protocol: (§1) 0.2×10⁶ SiHa cells were incubated with serially diluted anti-ALPP antibodies as described herein. Afterward, an AF488 goat anti-human secondary antibody or an AF488 goat anti-mouse IgG (Fcγ fragment specific) was used to stain the cells. Then, the fluorescently stained cells were detected by flow cytometry. Binding curves and calculated EC₅₀ values are shown in FIG. 10B and the table below, respectively.

[3] = target: T2, ALPP antigen (alkaline phosphatase, placental), coated on ELISA plates (UniProt P05187 23-506, limits assumed); test: ELISA, plate coated with 125 ng ALPP antigen, biotin goat anti-human and streptavidin-HRP, OD450
T2 construct: 125 ng ALPP antigen was coated per plate/well; the general description concerns human ALPP; also called PLAP; placental alkaline phosphatase
Protocol: (§2) Enzyme-linked immunosorbent assay (ELISA) plates were coated with 125 ng ALPP antigen. After blocking the plates, serial dilutions of anti-ALPP antibodies including A02 (H17E2), A04, A05, A06, A07, A08, A09, or a chimeric antibody were added to corresponding wells. Then, a Biotin-SP-AffiniPure goat anti-human antibody was added to wells containing the humanized antibodies A04, A05, A06, A07, A08, A09, or the chimeric antibody. Meanwhile, a Biotin-SP-AffiniPure goat anti-mouse Fc antibody was added to wells containing the mouse antibody H17E2. Next, HRP-conjugated streptavidin was used for biotin detection. Final detection was accomplished by assessing OD450 after 3,3′,5,5′-Tetramethylbenzidine (TMB) substrate was added. Binding curves and calculated EC₅₀ values are shown in FIG. 10A and the table below, respectively.

[4] = target: T2, ALPP antigen (alkaline phosphatase, …); test: ELISA, plate coated with 125 ng ALPP antigen, biotin goat anti-mouse Fc and streptavidin-HRP, OD450
Protocol: as §2

[5] = target: T1, ALPP on ALPP-positive SiHa cervical …; test: flow cytometry on SiHa cells, AF488 goat anti-mouse IgG (Fcγ specific) secondary
Protocol: as §1

T2 sequence (P05187 23-506 limits assumed): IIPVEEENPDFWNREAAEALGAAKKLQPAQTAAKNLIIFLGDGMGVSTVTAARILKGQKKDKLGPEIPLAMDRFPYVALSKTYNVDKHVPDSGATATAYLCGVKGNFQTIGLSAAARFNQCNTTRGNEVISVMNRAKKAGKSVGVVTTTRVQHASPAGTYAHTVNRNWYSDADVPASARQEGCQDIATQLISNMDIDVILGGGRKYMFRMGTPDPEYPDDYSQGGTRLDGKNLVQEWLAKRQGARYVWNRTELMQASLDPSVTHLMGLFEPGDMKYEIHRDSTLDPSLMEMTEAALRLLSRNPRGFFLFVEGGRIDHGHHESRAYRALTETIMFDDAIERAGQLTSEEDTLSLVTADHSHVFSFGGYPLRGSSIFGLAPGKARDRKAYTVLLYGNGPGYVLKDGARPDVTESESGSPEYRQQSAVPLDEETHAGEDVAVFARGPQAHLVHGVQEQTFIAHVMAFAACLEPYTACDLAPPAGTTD
T1 sequence (P05187 23-506 limits assumed): as above
Sequence of ALPP on ALPP-positive SiHa cervical cancer cells (UniProt P05187) (P05187 23-506 limits assumed): as above

“A02 CAR (murine H17E2 scFv, CD8 hinge and transmembrane region, 4-1BB, CD3 zeta)” was tested, and the CD69 expression in CD3+ Jurkat cells (percent activated), overnight co-culture with SiHa cells [1] was 70 to 80%.

B1: humanized anti-ALPP antibody A05 (antibody, V domains shown)
VH: QVQLKESGPGLVAPSQTLSLTCTVSGFSLTSYGVSWIRQPPGKGLEWIGVIWEDGSTNYHSALISRVSISVDTSKSQFSLKLSSVDAADTAVYYCARPHYGSSYVGAMEYWGQGTTVTVSS
VL: DIQMTQSPSSLSASVGDRVTITCRASENIYSYVAWYQQKPGKAPKFLIYNAKSLAEGVPSRFSGSGSGTDFTLTISSLQPEDFANYYCQHHYVSPWTFGQGTKVEIK
notes: Detected with a goat anti-human secondary antibody; also called A05Ab
Work on B1 yielded an EC50 [2] of 0.225 µg/mL and an EC50 [3] of 0.00491 µg/mL.

B2: humanized anti-ALPP antibody A07 (antibody, V domains shown)
VH: QVQLKESGPGLVAPSQTLSLTCTVSGFSLTSYGVSWIRQPPGKGLEWIGVIWEDGSTNYHSALISRVSISVDTSKSQFSLKLSSVDAADTAVYYCAKPHYGSSYVGAMEYWGQGTTVTVSS
VL: DIQMTQSPSSLSASVGDRVTITCRASENIYSYVAWYQQKPGKAPKFLIYNAKSLAEGVPSRFSGSGSGTDFTLTISSLQPEDFANYYCQHHYVSPWTFGQGTKVEIK
notes: Detected with a goat anti-human secondary antibody; also called A07Ab
In the case of B2, the EC50 [2] is reported as 0.302 µg/mL and the EC50 [3] is reported as 0.00534 µg/mL.

B3: humanized anti-ALPP antibody A06 (antibody, V domains shown)
VH: QVQLKESGPGLVAPSQTLSLTCTVSGFSLTSYGVSWIRQPPGKGLEWIGVIWEDGSTNYHSALISRVSISVDTSKSQFSLKLSSVDAADTAVYYCAKPHYGSSYVGAMEYWGQGTTVTVSS
VL: DIQMTQSPSSLSASVGDRVTITCRASENIYSYVAWYQQKPGKAPKLLIYNAKSLAEGVPSRFSGSGSGTDFTLTISSLQPEDFANYYCQHHYVSPWTFGQGTKVEIK
notes: Detected with a goat anti-human secondary antibody; also called A06Ab
B3 was tested, and the EC50 [2] was 0.257 µg/mL and the EC50 [3] was 0.0037 µg/mL.

B4: humanized anti-ALPP antibody A04 (antibody, V domains shown)
VH: QVQLQESGPGLVAPSQTLSLTCTVSGFSLTSYGVSWIRQPPGKGLEWIGVIWEDGSTNYHSALISRVSISVDTSKSQFSLKLSSVDAADTAVYYCARPHYGSSYVGAMEYWGQGTTVTVSS
VL: DIQMTQSPSSLSASVGDRVTITCRASENIYSYVAWYQQKPGKAPKFLIYNAKSLAEGVPSRFSGSGSGTDFTLTISSLQPEDFANYYCQHHYVSPWTFGQGTKVEIK
notes: Detected with a goat anti-human secondary antibody; also called A04Ab
For B4, the EC50 [2] was 0.286 µg/mL and the EC50 [3] was 0.00589 µg/mL.

B5: humanized anti-ALPP antibody A08 (antibody, V domains shown)
VH: QVQLQESGPGLVKPSQTLSLTCTVSGFSLTSYGVSWIRQPPGKGLEWIGVIWEDGSTNYHSALISRVSISVDTSKSQFSLKLSSVDAADTAVYYCARPHYGSSYVGAMEYWGQGTTVTVSS
VL: DIQMTQSPSSLSASVGDRVTITCRASENIYSYVAWYQQKPGKAPKFLIYNAKSLAEGVPSRFSGSGSGTDFTLTISSLQPEDFANYYCQHHYVSPWTFGQGTKVEIK
notes: Detected with a goat anti-human secondary antibody; also called A08Ab
B5 showed an EC50 [2] of 0.233 µg/mL and an EC50 [3] of 0.00481 µg/mL.

B6: parent mouse anti-ALPP antibody H17E2 (antibody, V domains shown)
VH: QVQLKESGPGLVAPSQSLSITCTVSGFSLTSYGVSWVRQPPRKGLEWLGVIWEDGSTNYHSALISRLSINKDNSKSQVFLKLNSLQTDDTATYYCAKPHYGSSYVGAMEYWGQGTSVTVSS
VL: DIQMTQSPASLTASVGETVTITCRASENIYSYVAWYQQKQGKSPQFLVYNAKSLAEGVPSRFSGSGSGTQFSLKINSLQPEDFGNYYCQHHYVSPWTFGGGTKLEIK
notes: Mouse monoclonal antibody, detected with goat anti-mouse Fc secondary antibodies; also called A02; A02 antibody
Molecule B6 has an EC50 [4] of 0.0108 µg/mL and an EC50 [5] of 0.211 µg/mL.
